# Positions count from the first letter of the chain named.
# B1: ova of SEQ ID4: ovalbumin with H22 and K187 mutated to F, generating new CD1d binding motifs (protein, listed as Gallus sp.)
# chain: MGSIGAASMEFCFDVFKELKVFHANENIFYCPIAIMSALAMVYLGAKDSTRTQINKVVRFDKLPGFGDSIEAQCGTSVNVHSSLRDILNQITKPNDVYSFSLASRLYAEERYPILPEYLQCVKELYRGGLEPINFQTAADQARELINSWVESQTNGIIRNVLQPSSVDSQTAMVLVNAIVFKGLWEFTFKDEDTQAMPFRVTEQESKPVQMMYQIGLFRVASMASEKMKILELPFASGTMSMLVLLPDEVSGLEQLESIINFEKLTEWTSSNVMEERKIKVYLPRMKMEEKYNLTSVLMAMGITDVFSSSANLSGISSAESLKISQAVHAAHAEINEAGREVVGSAEAGVDAASVSEEFRADHPFLFCIKHIATNAVLFFGRCVSP
# B2: ova of SEQ ID3: ovalbumin (chicken) in natural sequence (protein, listed as Gallus sp.)
# chain: B1 chain with F22H, F187K
# B3: Der p 2 of SEQ ID8: Der p 2 with the CD1d binding motif FAALAAF added at the carboxyterminal end (protein, listed as Dermatophagoides pteronyssinus)
# chain: DQVDVKDCANHEIKKVLVPGCHGSEPCIIHRGKPFQLEAVFEANQNSKTAKIEIKASIDGLEVDVPGIDPNACHYMKCPLVKGQQYDIKYTWNVPKIAPKSENVVVTAKVMGDDGVLACAIATHAKIRDFAALAAF
# Tests used:
# EG7 tumor cells = assay: EG7 tumor growth in preimmunized mice; format: in vivo; conditions: mice preimmunized subcutaneously in alum on 4 occasions, then engrafted with 10^6 EG7 tumor cells in the flank
# Description: Immunization of mice with ova of SEQ ID4 was carried out using […] of ova in alum administered subcutaneously on 4 occasions separated by an interval of 10 days. A control group was immunized with ova in natural sequence (SEQ ID3). All mice were then engrafted with 10^6 EG7 tumor cells injected in the flank and the growth of the tumor was followed over time.
# EG7 cells = assay: In vitro killing of EG7 cells by NKT cells from immunized mice (Annexin V / 7-AAD); format: cell-based; conditions: 18 h at 37° C. with NKT cells from immunized mice, ratios 1/1 to 1/5 (EG7 versus NKT)
# Description: In vitro killing of EG7 cells was evaluated using NKT cells prepared from the spleen using magnetic bead sorting. The NKT cells were first stimulated for 4 h in vitro with antigen-presenting cells loaded with ova of SEQ ID4. EG7 cells were labeled at membrane level with 1 μM DiOC18 (3,3′-dioctadecycloxacarbocyanine perchlorate from Invitrogen). EG7 cells (1×10^5 per well) were then cultured for 18 h at 37° C. in the presence of NKT cells obtained from each one of the 2 mouse groups, using ratios of 1/1 to 1/5 (EG7 cells versus NKT cells). After 18 h, cells were harvested and stained for Annexin V and 7-AAD following manufacturer's instructions (Apoptosis Detection kit; BD Biosciences) and analyzed on a FACSCantoII flow cytometer (BD Biosciences).
# [1] = test system: class II restricted CD4+ T cells; assay: Proliferation of CD4+ T cells from immunized mice cultured with dendritic cells from CD1d KO mice; format: cell-based, C57BL/6 mice; conditions: 10^6 cells/well with dendritic cells from syngeneic CD1d KO mice
# Description: Further, CD4+ T cells were prepared from the spleen of each mouse from the 2 groups, using magnetic bead sorting. Such cells (10^6 cells/well) were cultured with dendritic cells prepared from syngeneic CD1d KO mice. Such cells can only activate class II restricted CD4+ T cells. It is observed that cells obtained from mice immunized with Der p 2 of SEQ ID8 proliferate with a stimulation index 4-fold higher than cells obtained from mice immunized with native Der p 2 (SEQ ID7).
# anti-Der p 2 antibodies = assay: Specific anti-Der p 2 antibodies by direct binding ELISA after immunization; format: in vivo, C57BL/6 mice; conditions: 50 μg protein in alum subcutaneously 4 times at 10 days intervals
# Description: Two groups of C57BL/6 mice (H-2b) were immunized with either native Der p 2 (SEQ ID7) or native Der p 2 wherein a CD1d binding motif had been added (SEQ ID8), using 50 μg of protein in alum injected subcutaneously 4 times at 10 days intervals. Mice were then bled and the concentration of specific anti-Der p 2 antibodies was tested by direct binding ELISA. It is observed that the concentration of antibodies is 10-fold higher in the group of mice immunized with Der p 2 of SEQ ID8.
Molecule,tumor rejection (EG7 tumor cells),apoptosis of EG7 cells (EG7 cells),"stimulation index of CD4+ T cell proliferation, versus cells from mice immunized with native Der p 2 (SEQ ID7) [1]","concentration of specific anti-Der p 2 antibodies, versus mice immunized with native Der p 2 (SEQ ID7) (anti-Der p 2 antibodies)"
B1,rejected the tumor,induced into apoptosis,–,–
B2,did not,did not induce a significant degree of tumor cell apoptosis,–,–
B3,–,–,4 fold,10 fold
